Numbering of substitutions follows the chain as printed.
B1: anti-LILRB1 antibody 30A10 (antibody, V domains shown)
VH: QVQLVESGGGVVQPGRSLRLSCAASGFTFSSYAMHWVRQAPGKGLEWVAIIWFDGSQRYYADSVKGRFTISRDNSRDTLYLQMNSLRAEDTAVYYCARDELTGFDYWGQGTLVTVSS
VL: DIQMTQSPSSLSASVGDRVTISCRASQNIINFLNWYQQKPGKAPKVLIDAASSLRSGVPSRFSGSGSETDFSLTISSLQPEDFATYYCQQSFSTPLTFGGGTKVEIRR
notes: Fully human antibody from XENOMOUSE mice, tested as hybridoma supernatant
B2: anti-LILRB1 antibody 3C1 (antibody, human IgG4, lambda, V domains shown)
VH: EVQLVESGGGLVQPGGSLRLSCAASGFTFSDYDMHWVRQATGKGLEWVATIDTAGDTYYPDSVRGRFTISRENAKNSLSLQMNSLRAGDTAVYFCARDVPGTGFDHWGQGTLVTVSS
VL: SSELTQDPAVSVALGQTVRITCQGDSLRSYYESWYQQKPGQAPVLVIYGKNNRPSGIPDRFSGSISGNTASLTITGTQAEDEADYYCNSRDNSGDHWVFGGGTRLTVLG
notes: Fully human antibody from XENOMOUSE XMG4-K/XMG4-KL mice, tested as hybridoma supernatant
B3: anti-LILRB1 antibody 19D6 (antibody, V domains shown)
VH: EVQLVESGGGLVQPGESLRLSCAASGFTFSDYDMHWVRQATGKGLEWVSAIDTAGDTYYLGPVKGRFTISRENAKNSLFLHMNSLRVGDTAVYYCIRDSGSSFDYWGQGTLVTVSS
VL: B2 VL with S1T, S29N, I65S, T73I, N88M, N92S, D95N, R104K, L105V
notes: as for B1

How the values were obtained:
[1] = target: human LILRB1 expressed on cells (Jurkat reporter cells; primary human cells; human CD8+ T cells) (human) (UniProt Q8NHL6); assay: flow cytometry, control on LILRB1 expressed by primary human cells
[2] = target: T1, Recombinant human LILRB1 (R&D Systems) (human, UniProt Q8NHL6 24-458, limits assumed); assay: BLI, ForteBio Octet HTX, antibody captured by anti-human Fc on SA sensors, soluble LILRB1 as analyte, 25 C, 1:1 model
T1 construct: Soluble analyte in the Octet assay
Experimental: Affinity was measured on ForteBio Octet HTX (Molecular Devices) using SA biosensors (cat 18-5010) using assay buffer comprised of 10 mM Tris, 0.1% TritonX, 150 mM NaCl, 1 mM CaCl₂), 1 mg/mL BSA, pH 7.4. Assay was conducted at 25° C. and 1:1 model was used to fit the curves. Biotinylated goat anti-human Fc at 0.75 ug/mL was captured on SA sensors and antibodies as unpurified but quantified hybridoma supernatant were loaded on the sensor at 2 ug/mL for 600 seconds. Recombinant human LILRB1 (R&D Systems) titrated 1:2 from 25 nM was allowed to bind for 5 minutes, then dissociation was measured for 20 minutes.

[3] = target: human LILRB1 expressed on cells (Jurkat reporter cells; primary human cells; human CD8+ T cells) (human) (UniProt Q8NHL6); assay: flow cytometry, hybridoma supernatant on LILRB1 expressed by primary human cells
[4] = target: human LILRB1 expressed on cells (Jurkat reporter cells; primary human cells; human CD8+ T cells) (human) (UniProt Q8NHL6); assay: cell-based or functional assay

T1 sequence (Q8NHL6 24-458 limits assumed): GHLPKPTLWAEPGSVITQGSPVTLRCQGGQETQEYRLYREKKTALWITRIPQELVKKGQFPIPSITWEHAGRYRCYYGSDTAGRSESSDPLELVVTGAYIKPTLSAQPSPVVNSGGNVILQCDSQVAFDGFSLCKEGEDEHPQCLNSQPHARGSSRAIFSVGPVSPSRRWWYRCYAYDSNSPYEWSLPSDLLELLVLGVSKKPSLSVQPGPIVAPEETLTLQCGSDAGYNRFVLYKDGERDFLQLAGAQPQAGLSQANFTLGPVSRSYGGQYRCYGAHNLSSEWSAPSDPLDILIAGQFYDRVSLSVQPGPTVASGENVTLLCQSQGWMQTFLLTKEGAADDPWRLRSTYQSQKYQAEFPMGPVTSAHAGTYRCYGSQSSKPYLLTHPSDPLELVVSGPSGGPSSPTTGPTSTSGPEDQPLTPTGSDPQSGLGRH

Row | Molecule | FACS GeoMean test 2 [1] | FACS GeoMean, test 1 [1] | Kd [2] [nM] | koff [2] [s⁻¹] | kon [2] [M⁻¹ s⁻¹] | FACS GeoMean test 2 [3] | Potency (nM), n = 1 [4] [nM] | Potency (nM), n = 2 [4] [nM] | FACS GeoMean, test 1 [3]
1 | Isotype control (Table 2) (antibody) | 359 | 73 |  |  |  |  |  |  | 
2 | B1 |  |  | 0.103 | 0.00012 | 1.17e+06 | 2540 | 0.062 | 0.042 | 
3 | B2 |  |  | 0.168 | 0.000247 | 1.47e+06 |  | 0.04 | 0.024 | 1750
4 | B3 |  |  | 0.176 | 0.000206 | 1.17e+06 | 2540 | 0.084 | 0.095 | 

Source: patent US20210301020A1 (Amgen, published 2021)
